Experimental data: publication PMC7939381, “MMP activation–associated aminopeptidase N reveals a bivalent 14-3-3 binding motif” (The Journal of Biological Chemistry, 2021)

How the values were obtained:
14-3-3σ (stratifin, SFN) = 14-3-3σ (stratifin, SFN) (UniProt P31947); experiment: direct fluorescence polarisation titration; settings: reference: peptide 7 (pS43 only)
14-3-3β/α = 14-3-3β/α (UniProt P31946); experiment: direct fluorescence polarisation titration; settings: reference: peptide 7 (pS43 only)
14-3-3η = 14-3-3η (UniProt Q04917); experiment: direct fluorescence polarisation titration; settings: reference: peptide 7 (pS43 only)
[1] = biological target: peptide 11, APN 36–73 pSer43 pThr63, as used in ITC and co-crystallisation (human) (UniProt P15144); experiment: ITC; 14-3-3η (500 µM; 250 µM for peptide 11) titrated into peptide (50 µM; 12.5 µM for peptide 11), 18 injections; 50 mM HEPES pH 7.4, 250 mM NaCl, 20 mM MgCl2; 25 °C
Sequence of peptide 11, APN 36–73 pSer43 pThr63, as used in ITC and co-crystallisation (human) (P15144 36-73): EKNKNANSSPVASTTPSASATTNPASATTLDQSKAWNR

[2] = biological target: peptide 7, APN 36–73 pSer43, as used in ITC (human) (UniProt P15144); experiment: as above
Sequence of peptide 7, APN 36–73 pSer43, as used in ITC (human) (P15144 36-73): as above

[3] = biological target: fluorescently labeled peptide 7, APN 36–73 pSer43 (human) (UniProt P15144); experiment: fluorescence polarisation; direct binding: dilution series of 14-3-3 protein added to FITC-labeled peptide (30 nM stock, 5 µl in 15 µl); 10 mM HEPES pH 7.4, 150 mM NaCl, 2 mM DTT, 0.01% Tween 20; 60 min at room temperature, read at 25 °C; four-parameter fit
Sequence of fluorescently labeled peptide 7, APN 36–73 pSer43 (human) (P15144 36-73): as above

[4] = biological target: fluorescently labeled peptide 11, APN 36–73 pSer43 pThr63 (human) (UniProt P15144); experiment: as above
Sequence of fluorescently labeled peptide 11, APN 36–73 pSer43 pThr63 (human) (P15144 36-73): as above

## Aminopeptidase N (APN, CD13) 36-73 (from UniProt P15144) peptide 10 (pS43 pS61)
14-3-3σ (stratifin, SFN); sites S61
  binding against the reference: stronger
14-3-3β/α; sites S61
  binding against the reference: stronger
14-3-3η; sites S61
  binding against the reference: stronger

## Aminopeptidase N (APN, CD13) 36-73 (from UniProt P15144) peptide 12 (pS43 pT64)
14-3-3σ (stratifin, SFN); sites T64
  binding against the reference: stronger
14-3-3β/α; sites T64
  binding against the reference: stronger
14-3-3η; sites T64
  binding against the reference: stronger

## 14-3-3η, full length, N-terminally His6-tagged (from UniProt Q04917 1-246) (natural protein)
[1]
  Kd: 0.14 µM
  stoichiometry N: 0.58
[2]
  Kd: 40.7 µM
  stoichiometry N: 1.13
[3]
  Kd: 24 µM
[4]
  Kd: 0.046 µM

## Aminopeptidase N (APN, CD13) 36-73 (from UniProt P15144) peptide 11 (pS43 pT63)
14-3-3σ (stratifin, SFN); sites T63
  binding against the reference: stronger
14-3-3β/α; sites T63
  binding against the reference: stronger
